Paper PMC3998375 (Structure (London, England : 1993), 2013)

Assays:
[1] = target: murine B7-H3 ectodomain (mB7H3), wild type (mouse) (UniProt Q8VE98); assay: SEC
[2] = target: the molecule itself; assay: SEC

Molecule | kon [1] [M⁻¹ s⁻¹] | stoichiometry N [1] | kon [2] [M⁻¹ s⁻¹]
murine B7-H3 ectodomain (mB7H3), wild type (from UniProt Q8VE98 34-247) (domain or fragment) | 0.000161 | 2 | –
murine B7-H3 ectodomain (mB7H3) I126T (domain or fragment, mouse, UniProt Q8VE98 34-247, looked up) SEDPVVALVDTDATLRCSFSPEPGFSLAQLNLIWQLTDTKQLVHSFTEGRDQGSAYSNRTALFPDLLVQGNASLRLQRVRVTDEGSYTCFVSTQDFDSAAVSLQVAAPYSKPSMTLEPNKDLRPGNMVTITCSSYQGYPEAEVFWKDGQGVPLTGNVTTSQMANERGLFDVHSVLRVVLGANGTYSCLVRNPVLQQDAHGSVTITGQPLTFPPE | – | – | 4.1e-05
murine B7-H3 ectodomain (mB7H3) FG-loop chimera (I126Y/Q127G/D128G/F129A) (domain or fragment, mouse, UniProt Q8VE98 34-247, looked up) SEDPVVALVDTDATLRCSFSPEPGFSLAQLNLIWQLTDTKQLVHSFTEGRDQGSAYSNRTALFPDLLVQGNASLRLQRVRVTDEGSYTCFVSYGGADSAAVSLQVAAPYSKPSMTLEPNKDLRPGNMVTITCSSYQGYPEAEVFWKDGQGVPLTGNVTTSQMANERGLFDVHSVLRVVLGANGTYSCLVRNPVLQQDAHGSVTITGQPLTFPPE | – | – | 8.3e-06
murine B7-H3 ectodomain (mB7H3) F129A (domain or fragment, mouse, UniProt Q8VE98 34-247, looked up) SEDPVVALVDTDATLRCSFSPEPGFSLAQLNLIWQLTDTKQLVHSFTEGRDQGSAYSNRTALFPDLLVQGNASLRLQRVRVTDEGSYTCFVSIQDADSAAVSLQVAAPYSKPSMTLEPNKDLRPGNMVTITCSSYQGYPEAEVFWKDGQGVPLTGNVTTSQMANERGLFDVHSVLRVVLGANGTYSCLVRNPVLQQDAHGSVTITGQPLTFPPE | – | – | 0.000164
